Measured values published in the supplement of paper PMC10724198.
± gives the standard deviation of the averaged measurements.
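Further: PSI is a weighted mean of sequencing reads over stability bins, variants kept only with over 10 reads, mCherry proximal and sfGFP distal, peptide attached via GGGS linker.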

The sequences below were run on Saccharomyces cerevisiae (assay: protein stability index of tFT-peptide fusion (C-terminal peptide) (PSI (0-1 scale)); higher = more stable (slower turnover)). Conditions: genetic background: wild type; temperature: 30 C.
For PTLLQPPPPSYP, the protein stability index was 0.704 ± 0.048. PTLPGEQPRSWQ was tested, and the protein stability index was 0.6701 ± 0.0049. PTMKLPLLSCAR was tested, and the protein stability index was 0.602 ± 0.091. With PTPGSPPPPLHP the protein stability index was 0.706 ± 0.02. PTPHHPPPHPGP was tested, and the protein stability index was 0.726 ± 0.042. Sequence PTPLLTQHPRRP has a protein stability index of 0.72 ± 0.043. PTPLRILFALTP was tested, and the protein stability index was 0.611 ± 0.12. For PTPMLPNYPWSR, the protein stability index was 0.7431 ± 0.0015. In the case of PTPPHPTSPPPP, the protein stability index is reported as 0.693 ± 0.01. With PTPPPAFGFPPP the protein stability index was 0.688 ± 0.16. For PTPPTAAPAAPR, the protein stability index was 0.714 ± 0.053. For PTPPVPPPRTLL, the protein stability index was 0.667 ± 0.055. In the case of PTPRPTRSPPPP, the protein stability index is reported as 0.689 ± 0.01. Work on PTPSLPCPDHPL yielded a protein stability index of 0.693 ± 0.0098. PTQPVPPRTPHY showed a protein stability index of 0.6698 ± 0.0051. PTRAPVKPDQHP gave a protein stability index of 0.798 ± 0.072. In the case of PTTTPPPTPITG, the protein stability index is reported as 0.76 ± 0.065. For PTTTRSKDKVQR, the protein stability index was 0.738 ± 0.041. Sequence PTTVPPGPTSVH has a protein stability index of 0.755 ± 0.058. In the case of PTVKVLSWLAGH, the protein stability index is reported as 0.703 ± 0.018. PVASSPLLPSPS was tested, and the protein stability index was 0.649 ± 0.061. Sequence PVFDSRDRTFSH has a protein stability index of 0.713 ± 0.042. For PVHPPAPHPSPP, the protein stability index was 0.663 ± 0.037. With PVPCNYSPVIHL the protein stability index was 0.688 ± 0.029. Sequence PVPKFKEPKIWW has a protein stability index of 0.698 ± 0.021. PVPPGYFLRSPP gave a protein stability index of 0.701 ± 0.032. Sequence PVPRPSERSFLL has a protein stability index of 0.7316 ± 0.0057. With PVPSYYHKPPPL the protein stability index was 0.704 ± 0.019. PVRFGNCPSILS showed a protein stability index of 0.7725 ± 0.0012. Sequence PVSCPPPPLHMS has a protein stability index of 0.661 ± 0.013. In the case of PVSNVFDLTGMT, the protein stability index is reported as 0.683 ± 0.021. Sequence PVSPCSQRGIFV has a protein stability index of 0.692 ± 0.01. PVVFFSYPLPSF showed a protein stability index of 0.699 ± 0.019. For PWCTPVKRGTSM, the protein stability index was 0.763 ± 0.056. PWDGFGPYAPYP was tested, and the protein stability index was 0.657 ± 0.081. Work on PWPLPLPPSSLP yielded a protein stability index of 0.684 ± 0.018. Work on PWVNLFPCQINI yielded a protein stability index of 0.639 ± 0.02. PYAHTKGSLGML showed a protein stability index of 0.6352 ± 0.0013. Work on PYNLSSRPSTLL yielded a protein stability index of 0.625 ± 0.053. Work on PYPVRSRPPAPA yielded a protein stability index of 0.6726 ± 0.0039. In the case of PYSFDTNFVLIS, the protein stability index is reported as 0.643 ± 0.1. For PYTPRSTSPPPL, the protein stability index was 0.7702 ± 0.0066. In the case of QAGSTEERFCGG, the protein stability index is reported as 0.664 ± 0.02. Work on QAKKSLTTKTSD yielded a protein stability index of 0.658 ± 0.024. For QASRGSLPSEIE, the protein stability index was 0.6414 ± 0.0029. Work on QCESVRLNFGGR yielded a protein stability index of 0.704 ± 0.021. In the case of QDAPPSTPPRPL, the protein stability index is reported as 0.786 ± 0.15. In the case of QDFDHPNSIRLP, the protein stability index is reported as 0.671 ± 0.027. Work on QEKTKTYPIPQR yielded a protein stability index of 0.688 ± 0.041. QERWGRGWGTRG gave a protein stability index of 0.709 ± 0.072. QESKRKDMKERN gave a protein stability index of 0.75 ± 0.049. QEVTEVFSSTSY was tested, and the protein stability index was 0.658 ± 0.01. QEWAQYTHSEQP showed a protein stability index of 0.735 ± 0.026. Work on QFDRDCAWRPDV yielded a protein stability index of 0.653 ± 0.039. QFGPSENVEFRS showed a protein stability index of 0.742 ± 0.036. For QGDPTCLKGINE, the protein stability index was 0.669 ± 0.05. In the case of QGGREGSRQRRV, the protein stability index is reported as 0.629 ± 0.013. With QGIKRPSSNKSK the protein stability index was 0.731 ± 0.13. QGNEQFRYKILQ gave a protein stability index of 0.598 ± 0.098. Work on QGSRRPRSVVWG yielded a protein stability index of 0.708 ± 0.038. QGTNKRRNKNWE showed a protein stability index of 0.704 ± 0.03. QGVGDILARVQG showed a protein stability index of 0.697 ± 0.048. With QHFIRGWAWPTV the protein stability index was 0.729 ± 0.034. For QHHRTSIPSSPV, the protein stability index was 0.671 ± 0.025. QIGKQAAATGTA showed a protein stability index of 0.708 ± 0.049. QIHGQKNFKTLD gave a protein stability index of 0.704 ± 0.078. Work on QIIRKKSKVPTH yielded a protein stability index of 0.686 ± 0.057. Work on QKDTGKETTYRA yielded a protein stability index of 0.681 ± 0.037. Sequence QKKELKTKKKER has a protein stability index of 0.663 ± 0.016. In the case of QKKKKKNTKKKL, the protein stability index is reported as 0.701 ± 0.054. Work on QKKNQNKQEQKL yielded a protein stability index of 0.683 ± 0.021. QKKNSKKIKPKR gave a protein stability index of 0.694 ± 0.026. QKKRKKTNQKNL was tested, and the protein stability index was 0.621 ± 0.041. Work on QKNKNTEKINTK yielded a protein stability index of 0.663 ± 0.018. QKRKQKKIIQRM gave a protein stability index of 0.652 ± 0.013. For QKTLKPEQVAEH, the protein stability index was 0.68 ± 0.027. With QKTVRDIRIAAL the protein stability index was 0.591 ± 0.086. In the case of QLETFGRDLTIP, the protein stability index is reported as 0.716 ± 0.11. QLGGLHIPHPLR was tested, and the protein stability index was 0.899 ± 0.028. QNKKNKNKKKKE was tested, and the protein stability index was 0.706 ± 0.027. In the case of QNKTQKSKKKKS, the protein stability index is reported as 0.734 ± 0.038. In the case of QPPLSDYHQARR, the protein stability index is reported as 0.683 ± 0.023. For QPPPPPPRPPPP, the protein stability index was 0.504 ± 0.016. With QPPPPSPPPPLP the protein stability index was 0.653 ± 0.047. For QPTCSLRAGPRD, the protein stability index was 0.713 ± 0.036. Sequence QPVGAAQWGSQS has a protein stability index of 0.715 ± 0.028. With QQRKGTKDNGRE the protein stability index was 0.707 ± 0.095. In the case of QREKGEKERTET, the protein stability index is reported as 0.6783 ± 0.004. With QRGGEGWILGGV the protein stability index was 0.687 ± 0.026. QRPSRAQGKSYE showed a protein stability index of 0.766 ± 0.014. QRRRYKHEIKRM showed a protein stability index of 0.648 ± 0.0085. For QRSEHGAHPTEP, the protein stability index was 0.701 ± 0.035. QRSFSLRLSAPV showed a protein stability index of 0.681 ± 0.029. QRTAACGSQRNR was tested, and the protein stability index was 0.682 ± 0.025. With QSILVCELGMEG the protein stability index was 0.67 ± 0.051. QSKIKNKNIKIK was tested, and the protein stability index was 0.671 ± 0.017. QSLRRLSSSSCI was tested, and the protein stability index was 0.707 ± 0.058. With QSRAMFELMGIS the protein stability index was 0.652 ± 0.004. Work on QSRHCHPTPKRL yielded a protein stability index of 0.65 ± 0.031. With QSRYASDLRNGL the protein stability index was 0.699 ± 0.065. QSSWVGRWVRGG showed a protein stability index of 0.659 ± 0.02. For QSVSSTGQARLS, the protein stability index was 0.682 ± 0.033. QSWVNIGCRGAW was tested, and the protein stability index was 0.72 ± 0.012. QTATIKGTLIAM showed a protein stability index of 0.585 ± 0.0076. QTDRPPPVSPPR showed a protein stability index of 0.671 ± 0.047. QTKSPAKREKTC showed a protein stability index of 0.665 ± 0.058. QTVFRQRLKEPF showed a protein stability index of 0.644 ± 0.038. In the case of QVFTLFPASYPL, the protein stability index is reported as 0.688 ± 0.057. For QVKESDGEATKS, the protein stability index was 0.592 ± 0.024. Sequence QVPDPSVNQPPS has a protein stability index of 0.699 ± 0.028. Sequence QWAAVCAVVGGG has a protein stability index of 0.684 ± 0.055. Sequence QWAGGQERTAGK has a protein stability index of 0.583 ± 0.024. For QWIINVSRSIRK, the protein stability index was 0.654 ± 0.031. For RAARQRSVYQHG, the protein stability index was 0.6481 ± 0.0037. For RACSLWVSVVQP, the protein stability index was 0.67873 ± 2.3e-05. With RADGHGARFRVR the protein stability index was 0.799 ± 0.009. Sequence RAFDGYNSVDML has a protein stability index of 0.663 ± 0.023. RAKLKKNKRRCK was tested, and the protein stability index was 0.719 ± 0.0067. RALGKRFIQARD was tested, and the protein stability index was 0.727 ± 0.022. In the case of RALPPPLCPPPH, the protein stability index is reported as 0.606 ± 0.056. With RAPMQPTATQAP the protein stability index was 0.654 ± 0.035. RAPPKTTPHPAE gave a protein stability index of 0.693 ± 0.052. For RARELGVPPPPP, the protein stability index was 0.579 ± 0.066. With RARGGGAEPGRN the protein stability index was 0.685 ± 0.027. For RARGQPTKDIAS, the protein stability index was 0.643 ± 0.018. Sequence RARNRPKTEYHI has a protein stability index of 0.6826 ± 0.0025. For RASFLLPPPAPP, the protein stability index was 0.6311 ± 0.0049. RAVFFLQAHCSL gave a protein stability index of 0.674 ± 0.0072. In the case of RAWPLLPTCPPP, the protein stability index is reported as 0.7 ± 0.019. Work on RCFGPPSRLAYF yielded a protein stability index of 0.683 ± 0.017. In the case of RCGDGLSRLTPL, the protein stability index is reported as 0.71 ± 0.032. In the case of RCGGGGSVSFWW, the protein stability index is reported as 0.693 ± 0.049. Work on RCGLSGGRPPVL yielded a protein stability index of 0.6475 ± 0.0016. RCGRVEKRIGRV was tested, and the protein stability index was 0.756 ± 0.086. Sequence RCIAAEFFRVHP has a protein stability index of 0.685 ± 0.019. With RCIASHRLSLRT the protein stability index was 0.682 ± 0.037. With RCTRAAGLAAPA the protein stability index was 0.691 ± 0.0088. With RCTWEATYNLRY the protein stability index was 0.749 ± 0.092. RCVSLDVPPTGA showed a protein stability index of 0.688 ± 0.013. In the case of RDALVNADKIGR, the protein stability index is reported as 0.703 ± 0.061. For RDAWLGMSQYTF, the protein stability index was 0.7302 ± 0.0051. In the case of RDCVVSCSCIHI, the protein stability index is reported as 0.694 ± 0.057. Work on RDGKRHSSQWRG yielded a protein stability index of 0.659 ± 0.037. For RDGLWCFSEFLG, the protein stability index was 0.731 ± 0.048. Sequence RDGRAGGDIGAT has a protein stability index of 0.618 ± 0.11. In the case of RDNNSNEMGQAI, the protein stability index is reported as 0.723 ± 0.016. For RDPIGRPEMSKI, the protein stability index was 0.67 ± 0.086. Work on RDPTPPNPPPSR yielded a protein stability index of 0.763 ± 0.057. RDTFLKMLDERN showed a protein stability index of 0.732 ± 0.042. RDVVRGVSRGGR showed a protein stability index of 0.714 ± 0.02. For REAPPYQSHVAS, the protein stability index was 0.676 ± 0.065. Work on REDAKLGYGKKK yielded a protein stability index of 0.637 ± 0.061. With REGGVLGVVKWS the protein stability index was 0.668 ± 0.02. In the case of REGPSPLDPSRF, the protein stability index is reported as 0.684 ± 0.051. RELKSPRCRTHR gave a protein stability index of 0.653 ± 0.12. RELLWFIFTGFC gave a protein stability index of 0.622 ± 0.042. Work on REREKITRKRNT yielded a protein stability index of 0.69 ± 0.01. RERGVSVKLGGG gave a protein stability index of 0.677 ± 0.026. RESPYSRSRCLL showed a protein stability index of 0.733 ± 0.17. Work on RETMFTRFRGSD yielded a protein stability index of 0.627 ± 0.063.
